Reference: patent US7026282B1, “Peptide antagonists of the human urokinase receptor and method for selecting them” (Cancerforskningsfonden AF 1989 (Fonden Til Fremme AF …, priority 1998, dated 2006)
Entries after “also recorded” stand apart in the source; their conditions may differ. Starred links: 1 amine or outer side, 2 acyl side, 3 side chain; linkers in the order of their positions; H or OH if unused. Non-standard residues stand in square brackets, D forms with d. No end group written: not given here. DMB = N-(2,3-dimethoxybenzyl)glycine, COc1cccc(CN(CC(=O)[*:2])[*:1])c1OC; Gly(N(CH2)2(3-indolyl)) = O=C(O)CNCCc1c[nH]c2ccccc12; 1Nal = N[C@@H](Cc1cccc2ccccc12)C(=O)O; 2Nal = N[C@@H](Cc1ccc2ccccc2c1)C(=O)O; AMN = N-(methylnaphthalyl)glycine; Cha = N[C@@H](CC1CCCCC1)C(=O)O; Nme = COCCNCC(=O)O; βAla = NCCC(=O)O

Columns and labels:
[1] = target: soluble recombinant variant of human uPAR (suPAR) (human) (UniProt Q03405); assay: SPR (Biacore), ligand over immobilised neuramimidase-treated human suPAR
Chain of soluble recombinant variant of human uPAR (suPAR) (human) (Q03405 23-299, change not shown): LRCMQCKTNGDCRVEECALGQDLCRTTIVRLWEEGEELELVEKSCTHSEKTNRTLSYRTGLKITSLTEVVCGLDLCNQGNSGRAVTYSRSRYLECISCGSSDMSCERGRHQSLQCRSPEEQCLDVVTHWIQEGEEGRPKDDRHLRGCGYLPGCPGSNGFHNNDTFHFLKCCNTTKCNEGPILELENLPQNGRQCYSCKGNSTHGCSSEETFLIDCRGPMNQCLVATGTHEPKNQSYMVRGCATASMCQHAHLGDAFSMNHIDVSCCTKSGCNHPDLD

[2] = target: T1, neuramimidase-treated human suPAR (soluble recombinant uPAR) (Homo sapiens, UniProt Q03405); assay: Biacore Binding Assay (surface plasmon resonance), ligand binding to immobilised suPAR; conditions: for kdiss (dissociation rate constant, off-rate): Biacore, 5° C., immobilised suPAR; for Relative kdiss: relative to the Growth Factor Domain of uPA (GFD = 1.0); for dissociation constant compared with other peptides: peptomer analogues; for human uPAR binding after introduction of spacing residues: spacer between D-arginine and L-tyrosine
T1 construct: A soluble recombinant variant of human uPAR (suPAR) was expressed in Chinese hamster ovary (dhfr) cells; made in house; host or cells: Chinese hamster ovary (dhfr) cells
T1 sequence (Q03405 23-305 limits assumed): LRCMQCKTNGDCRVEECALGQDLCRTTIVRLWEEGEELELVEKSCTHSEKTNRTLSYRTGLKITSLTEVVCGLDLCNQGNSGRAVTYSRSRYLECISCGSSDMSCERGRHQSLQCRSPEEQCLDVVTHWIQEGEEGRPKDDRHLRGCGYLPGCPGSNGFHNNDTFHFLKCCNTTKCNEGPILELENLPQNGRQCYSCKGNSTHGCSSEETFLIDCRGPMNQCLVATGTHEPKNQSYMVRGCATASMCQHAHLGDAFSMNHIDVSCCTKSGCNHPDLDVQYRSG
Description: Association rate constants (kass), dissociation rate constants (kdiss) and equilibrium binding constants (kd) for various synthetic peptides and receptor binding derivatives of human uPA were determined by surface plasmon resonance (R. Karlsson et al. (1991) J. Immunol. Meths. 145:229–240) using a BIAcore2000™ instrument (Pharmacia Biosensor, Uppsala, Sweden). Due to the low isoelectric point of uPAR (pI≈4.5) terminal sialic acid residues were removed from its N-linked carbohydrates to facilitate chemical immobilisation on the sensor chip. This was accomplished by incubating purified suPAR (1 mg/ml in 50 mM phosphate, 150 mM NaCl, pH 7.4) with 5 μg/ml neuramimidase for 4 hours at 37° C. […] Coupling of the neuramimidase-treated suPAR to a BIAcore sensor chip was achieved by injection of 20 μg/ml suPAR in 10 mM sodium acetate pH 5.0 for 6 minutes at a flow rate of […] per minute using a carboxymethylated dextran matrix (CM5 sensor chip) preactivated with N-hydroxysuccinimide/N-ethyl-N′-[3-([…])propyl]carbodiimide according to the manufacturer's recommendations. Approximately 1,500–2,000 resonance units (RU) were immobilised by this procedure (corresponding to 1–2 ng suPAR/mrn^2).
Sensorgrams (RU versus time) were recorded (FIG. 2) at a flow rate of 10 μl per min at 5° C. using several different concentrations of the ligand (synthetic peptides, uPA, the amino-terminal fragment (ATF) of uPA, or the growth factor domain (GFD) of uPA) in the range of 10 to 1000 nM in running buffer (10 mM HEPES, 150 mM NaCl, 3 mM EDTA (pH 7.4) including 0.005% surfactant P-20). Stock solutions of peptides from combinatorial chemistry were made in DMSO (10 mg peptide/ml DMSO). The sensor chip was regenerated at the end of each run by injection of 0.1 M acetic acid, 0.5 M NaCl. Data obtained from parallel mock coupled flow cells (subjected to the coupling procedure in the presence of buffer only) served as blank sensorgrams for subtraction of changes in bulk refractive index. The sensorgrams obtained were analysed by non-linear least squares fitting using BIAevaluation 2.0 software (Pharmacia Biosensor, Uppsala, Sweden) assuming single-site association and dissociation models.
Purified human suPAR (1 mg/ml in 50 mM phosphate, 150 mM NaCl, pH 7.4) was incubated with 5 μg/ml neuramimidase for 4 hours at 37° C.
In order to couple the neuramimidase-treated suPAR to a BIAcore sensor chip, 20 μg/ml suPAR in 10 mM sodium acetate (pH 5.0) was injected for 6 minutes at a flow rate of 5 μl per minute using a carboxymethylated dextran matrix (CM5 sensor chip), thereby immobilising approximately 1,500–2,000 resonance units (RU), which correspond to 1–2 ng suPAR/mm^2. The CM5 sensor chip was preactivated with N-hydroxysuccinimide/N-ethyl-N′-[3-([…])propyl]carbodiimide in accordance with the manufacturer's recommendations.
Surface plasmon resonance sensorgrams (RU versus time) were recorded at a flow rate of 10 μl per min at 5° C. using several different concentrations of the ligand (i.e. the relevant peptide or GFD) in the range from 10 to 1000 nM in running buffer (10 mM HEPES, 150 mM NaCl, 3 mM EDTA (pH 7.4) including 0.005% surfactant P-20).
The sensor chip was regenerated at the end of each run by injection of 0.1 M acetic acid, 0.5 M NaCl.
Data from parallel mock coupled flow cells (subjected to the coupling procedure in the presence of buffer only) served as blank sensorgrams for subtraction of changes in bulk refractive index.
The obtained sensorgrams were analysed by non-linear least squares fitting using BIAevaluation 2.0 software (Pharmacia Biosensor, Uppsala, Sweden) assuming single-site ssociation and dissociation models.

Relative kdiss (relative to GFD) [1]	koff [1] [s⁻¹]	kdiss (dissociation rate constant, off-rate) [2]	Relative kdiss [2]	human uPAR binding after introduction of spacing residues [2]	Molecule	dissociation constant compared with other peptides [2]
4	0.00056	–	–	–	AE100 (peptide)	–
–	–	0.00053 s⁻¹	3.8	–	D-Cha-F-s-r-Cha-L-W-l (D[Cha]F[dS][dR][Cha]LW[dL]) [AE132]	–
–	–	0.00037 s⁻¹	2.6	–	D-Cha-F-s-r-DMB-f-AMN-MEA (D[Cha]F[dS][dR][DMB][dF][AMN][Nme]) [AE126, peptide-peptoid hybrid (peptomer)]	same order of magnitude as the best of the peptides; also recorded: approximating those of AE105 and AE110
–	–	0.00054 s⁻¹	3.9	–	D-Cha-F-s-r-DMB-f-DMB-l (D[Cha]F[dS][dR][DMB][dF][DMB][dL]) [AE129, peptide-peptoid hybrid (peptomer)]	–
–	–	0.00561 s⁻¹	40.0	–	D-Cha-F-s-r-DMB-f-TRA-MEA (D[Cha]F[dS][dR][DMB][dF][Gly(N(CH2)2(3-indolyl))][Nme]) [AE124, peptide-peptoid hybrid (peptomer)]	same order of magnitude as the best of the peptides
–	–	0.00074 s⁻¹	5.3	–	D-Cha-F-s-r-DMLB-f-Bzl-MEA [AE125, peptide-peptoid hybrid (peptomer)]	same order of magnitude as the best of the peptides
–	–	0.00051 s⁻¹	3.6	–	D-Cha-F-s-r-L-L-W-h (D[Cha]F[dS][dR]LLW[dH]) [AE130]	–
–	–	no binding	>>100	–	D-Cha-F-s-r-MEA-DMB-f-AMN (D[Cha]F[dS][dR][Nme][DMB][dF][AMN]) [AE128, peptide-peptoid hybrid (peptomer)]	same order of magnitude as the best of the peptides
–	–	0.00056 s⁻¹	4.0	–	D-Cha-F-s-r-Y-L-Nal-h (D[Cha]F[dS][dR]YLX[dH]; not fully specified (residue 8); printed as D-Cha-F-s-r-Y-L-Nal-h) [AE131]	–
–	–	0.00263 s⁻¹	18.7	–	DChaFSrYLWS (DXFSRYLWS; D-residues; non-natural residues; cyclised or stapled) [AE106]	–
–	–	0.00028 s⁻¹	2.0	–	DChaFsRYLWS (DXFSRYLWS; D-residues; non-natural residues; cyclised or stapled) [AE110]	–
–	–	no binding	>>100	abolished the binding	DChaFsrGYLWS (D[Cha]F[dS][dR]GYLWS) [AE116]	–
–	–	no binding	>>100	abolished the binding	DChaFsrβAYLWS (D[Cha]F[dS][dR][βAla]YLWS) [AE117]	–
–	–	0.00181 s⁻¹	12.9	–	DFFsrYLWS (DFF[dS][dR]YLWS) [AE112]	–
–	–	no binding	>>100	–	DNFsrYLWS (DNF[dS][dR]YLWS) [AE113]	–
–	–	0.00059 s⁻¹	4.2	–	DchaFsrYL^1nAS [AE114]	–
–	–	0.00105 s⁻¹	7.5	–	LNFsQYLWS (LNF[dS]QYLWS) [AE111]	–
–	–	0.00349 s⁻¹	24.9	–	SLChaFsQYLWS (SL[Cha]F[dS]QYLWS)	–

Relative kdiss (relative to GFD) [1]	koff [1] [s⁻¹]	kdiss (dissociation rate constant, off-rate) [2]	Relative kdiss [2]	human uPAR binding after introduction of spacing residues [2]	Molecule	dissociation constant compared with other peptides [2]
–	–	0.0129 s⁻¹	92.1	–	SLNFSQYLWS (AE68) [reference compound]	–
0.86	0.00012	–	–	–	amino-terminal-fragment (ATF) of human uPA (from UniProt P00749 21-155) (ligand)	–
–	–	no binding	>>100	–	arFhhYLWS ([dA][dR]F[dH][dH]YLWS) [AE104]	–
–	–	0.00884 s⁻¹	63.1	–	dChaFSrYLWS (DXFSRYLWS; D-residues; non-natural residues; cyclised or stapled) [AE107]	–
–	–	0.00205 s⁻¹	14.6	–	dChaFsrYL^2nAS ([dD][Cha]F[dS][dR]YL[2Nal]S) [AE109]	–
–	–	0.00167 s⁻¹	11.9	–	eChaFsYYLWS ([dE][Cha]F[dS]YYLWS) [AE115]	–
–	–	0.00056 s⁻¹	4.0	–	eChaFsyYLWS ([dE][Cha]F[dS][dY]YLWS) [AE100]	–
–	–	0.00048 s⁻¹	3.4	–	tChaFsrYLWS ([dT][Cha]F[dS][dR]YLWS) [AE108]	–
18.7	0.00263	–	–	–	DXFSRYLWS (beta-cyclohexyl-L-alanine (Cha) at 2; D-Arg at 5) [AE106]	–
> 100	–	–	–	–	D[Cha]F[dS][dR][βAla]YLWS (not fully specified; printed as DChaFsrβAYLWS) [AE117]	–
24.9	0.00349	–	–	–	SL[Cha]F[dS]QYLWS [Lcha]	–
63.1	0.00884	–	–	–	DXFSRYLWS (D-Asp at 1; beta-cyclohexyl-L-alanine (Cha) at 2; D-Arg at 5) [AE107]	–
2	0.00028	–	–	–	DXFSRYLWS (beta-cyclohexyl-L-alanine (Cha) at 2; D-Ser at 4) [AE110]	–
> 100	–	–	–	–	D[Cha]F[dS][dR]GYLWS (not fully specified) [AE116]	–
4.2	0.00059	–	–	–	D[Cha]F[dS][dR]YL[1Nal]S [AE114]	–
11.9	0.00167	–	–	–	[dE][Cha]F[dS]YYLWS [AE115]	–
7.5	0.00105	–	–	–	LNF[dS]QYLWS [AE111]	–
92.1	0.0129	–	–	–	SLNFSQYLWS [AE68]	–

Molecule	Relative kdiss (relative to GFD) [1]	koff [1] [s⁻¹]	kdiss (dissociation rate constant, off-rate) [2]	Relative kdiss [2]	human uPAR binding after introduction of spacing residues [2]	dissociation constant compared with other peptides [2]
ATF: amino-terminal-fragment (ATF) of human uPA	–	–	0.00012 s⁻¹	0.86	–	–
dChaFsrYLWs (DXFSRYLWS; not fully specified; D-residues; non-natural residues; cyclised or stapled)	–	–	0.00068 s⁻¹	4.9	–	–
